Test results reported in publication PMC10873621.

Molecular target: RNF20 (UniProt Q5VTR2)
Assay: co-IP with anti-Myc, anti-Flag blot
Conditions: reference: Flag-LSD1-WT; sites T810,S817,T841,S849,S851

LSD1 (from UniProt O60341) Flag-LSD1-5A
binding against the reference: weaker
